Test results: US20260258155A1 (TRIVENI BIO, published 2026)
Where a chain is given by its changes, count along the chain named.

B1: KLK7-L1-Ab8 (antibody, V domains shown)
VH: QVQLVQSGAEVKKPGASVKVSCKASGYTFTSEGIHWVRQAPGQGLEWMGSISASSGDTNYAQKLQGRVTMTTDTSTSTAYMELRSLRSDDTAVYYCARSAGYGARHWYFDLWGQGTMVTVSS
VL: DIQMTQSPSSLSASVGDRVTITCRASQSISSYLNWYQQKPGKAPKLLIYGASSLQSGVPSRFSGSGSGTDFTLTISSLQPEDFATYYCDQWYSTPPITFGGGTKVEIK
B2: KLK7-L4-Ab1 (antibody, V domains shown)
VH: QLQLQESGPGLVKPSETLSLTCTVSGGSISSSSYYWGWIRQPPGKGLEWIGSISYSGSTYYNPSLKSRVTISVDTSKNQFSLKLSSVTAADTAVYYCARGAPTYFGAASHYYYYMDVWGKGTTVTVSS
VL: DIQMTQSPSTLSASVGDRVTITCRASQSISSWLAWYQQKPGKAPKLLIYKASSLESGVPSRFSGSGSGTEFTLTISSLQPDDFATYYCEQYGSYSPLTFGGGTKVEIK
B3: KLK7-L3-Ab1 (antibody, V domains shown)
VH: QVQLVQSGAEVKKPGSSVKVSCKASGGTFSNYAISWVRQAPGQGLEWMGGIIPIFGTANYAQKFQGRVTITADESTSTAYMELSSLRSEDTAVYYCARGAPNYYGSSSSRGIAFDIWGQGTMVTVSS
VL: DIQMTQSPSSVSASVGDRVTITCRASQGISSWLAWYQQKPGKAPKLLIYAASSLQSGVPSRFSGSGSGTDFTLTISSLQPEDFATYYCVQANAFPYTFGGGTKVEIK
B4: KLK5-L3-Ab1 (antibody, V domains shown)
VH: QVQLVQSGAEVKKPGASVKVSCKASGYTFTGYYMHWVRQAPGQGLEWMGGIIPISGTANYAQKFQGRVTITADESTSTAYMELSSLRSEDTAVYYCARGSASGYYDRSYYYYGMDVWGQGTTVTVSS
VL: B3 VL with V89Q, A91V, N92S, A93S

Assays:
mouse KLK7 (mKLK7) [1] = target: T1, mouse KLK7 (mKLK7) (mouse, UniProt Q91VE3 26-249); test: cell-based or functional assay
[2] = target: T2, human KLK7 (hKLK7), active form (human, UniProt P49862 30-253); test: cell-based or functional assay
mouse KLK7 (mKLK7) [3] = target: T1, mouse KLK7 (mKLK7); test: Biacore SPR, antibody captured on Protein A chip, single-cycle kinetics, 25 C
Description: (§1) All screening assays were performed at 25 C. The running buffer used was 20 mM HEPES, 300 mM NaCl, 0.01% Tween-20, pH 7.5. Antibodies (1 ug/mL) were captured on Fc2-4 of a Series S ProteinA Sensor Chip (Cytiva) flowing at 10 ul/mL for 30 s. Kinetics measurements were made in single-cycle kinetics mode with a series of 4-5 concentrations with top concentration of 25-100 nM and serial dilution 4-fold. Contact time was typically 300 s and dissociation time ranged from 1800-3600 s. Flow rate of 30 ul/mL was typically used. The sensor chip was regenerated with 10 mM glycine, pH 1.5 with a contact time of 30 s flowing at 50 ul/mL.

[4] = target: T2, human KLK7 (hKLK7), active form; test: as above
Description: as §1

mouse KLK5 (mKLK5) [5] = target: mouse KLK5 (mKLK5) (mouse); test: cell-based or functional assay
[6] = target: T3, human KLK5 (hKLK5), active form (human, UniProt Q9Y337 67-293); test: cell-based or functional assay
mouse KLK5 (mKLK5) [7] = target: T4, mouse KLK5 (mKLK5) (mouse); test: Biacore SPR, antibody captured on Protein A chip, single-cycle kinetics, 25 C
T4 construct: Enzymatically active in the protease assay
Description: as §1

[8] = target: T3, human KLK5 (hKLK5), active form; test: as above
Description: as §1

T2 sequence (P49862 30-253): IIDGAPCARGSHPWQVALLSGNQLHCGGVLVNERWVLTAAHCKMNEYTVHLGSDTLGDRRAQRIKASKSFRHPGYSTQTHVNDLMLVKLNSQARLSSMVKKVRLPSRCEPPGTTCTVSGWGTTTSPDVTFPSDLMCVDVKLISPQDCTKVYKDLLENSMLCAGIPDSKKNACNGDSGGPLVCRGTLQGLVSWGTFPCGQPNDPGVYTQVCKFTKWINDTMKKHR
T1 sequence (Q91VE3 26-249 limits assumed): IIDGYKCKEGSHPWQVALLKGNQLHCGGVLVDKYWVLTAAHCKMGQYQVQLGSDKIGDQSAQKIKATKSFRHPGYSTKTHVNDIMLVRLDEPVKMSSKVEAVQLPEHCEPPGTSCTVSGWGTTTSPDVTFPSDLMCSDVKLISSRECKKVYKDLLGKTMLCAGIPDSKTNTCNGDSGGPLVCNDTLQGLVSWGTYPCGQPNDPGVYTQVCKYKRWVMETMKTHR

| Binder | mKLK7 IC50 (protease inhibition) (mouse KLK7 (mKLK7) [1]) [nM] | mKLK7 IC90 (protease inhibition) (mouse KLK7 (mKLK7) [1]) [nM] | hKLK7 IC50 (protease inhibition) [2] [nM] | hKLK7 IC90 (protease inhibition) [2] [nM] | Kd (mouse KLK7 (mKLK7) [3]) [nM] | Kd [4] [nM] | mKLK5 IC50 (protease inhibition) (mouse KLK5 (mKLK5) [5]) [nM] | mKLK5 IC90 (protease inhibition) (mouse KLK5 (mKLK5) [5]) [nM] | hKLK5 IC50 (protease inhibition) [6] [nM] | hKLK5 IC90 (protease inhibition) [6] [nM] | Kd (mouse KLK5 (mKLK5) [7]) [nM] | Kd [8] [nM] |
| --- | --- | --- | --- | --- | --- | --- | --- | --- | --- | --- | --- | --- |
| B1 | 1.1 | 5.3 | 0.767 | 3.95 | 0.0569 | 0.01 |  |  |  |  |  |  |
| B2 | 16.3 | 118 | 0.52 | 14.9 | 6 | 0.219 |  |  |  |  |  |  |
| B3 | 10.9 | 212 | 0.37 | 10.5 | 9.03 | 0.0205 |  |  |  |  |  |  |
| B4 |  |  |  |  |  |  | 81.3 | 130 | 12.7 | 112 | 16.6 | 2.62 |
